Results: publication PMC2867956, “Interdomain Interactions Control Ca^2+-Dependent Potentiation in the Cation Channel TRPV4” (PLoS ONE, 2010)

Test system: CFP-fused N1
Test: FRET acceptor bleaching, N1/C1 interaction in HEK293 cells
Type: cell-based, human
Conditions: YFP-fused C1 and CFP-fused N1 coexpressed in HEK293 cells
Text: (See Methods S1 for details).

B1: C1: full-length TRPV4 C terminus, residues 721-871 (protein, UniProt Q9HBA0 721-871, looked up, fragment)
chain: TVGQVSKESKHIWKLQWATTILDIERSFPVFLRKAFRSGEMVTVGKSSDGTPDRRWCFRVDEVNWSHWNQNLGIINEDPGKNETYQYYGFSHTVGRLRRDRWSSVVPRVVELNKNSNPDEVVVPLDSMGNPRCDGHQQGYPRKWRTDDAPL
FRET interaction of N1 and C1: interact
